Columns and labels:
[1] = test system: T1, DNP-Pro-Cha-Abu-Cys(Me)-His-Ala-Lys(N-Me-Abz)-NH2
T1 sequence: PXXCHAK

recombinant human liver-derived metalloprotease expressed in Escherichia coli JM109/pNHMB
intensity of fluorescence (excitation 365 nm, emission 460 nm) after cleavage of the substrate [1]: a fluorescence intensity of 230

B1: human liver-derived metalloprotease transiently expressed in COS-7 cells transfected with pTB1921 (culture supernatant, treated with aminophenyl-mercuric … (protein)
chain: YLLLGRWRKKHLTFRILNLPSTLPPHTARAALRQAFQDWSNVAPLTFQEVQAGAADIRLSFHGRQSSYCSNTFDGPGRVLAHADIPELGSVHFDEDEFWTEGTYRGVNLRIIAAHEVGHALGLGHSRYSQALMAPVYEGYRPHFKLHPDDVAGIQALYGKKSPVIRDEEEEETELPTVPPVPTEPSPMPDPCSSELDAMMLGPRGKTYAFKGDYVWTVSDSGPGPLFRVSALWEGLPGNLDAAVYSPRTQWIHFFKGDKVWRYINFKMSPGFPKKLNRVEPNLDAALYWPLNQKVFLFKGSGYWQWDELARTDFSSYPKPIKGLFTGVPNQPSAAMSWQDGRVYFFKGKVYWRLNQQLRVEKGYPRNISHNWMHCRPRTIDTTPSGGNTTPSGTGITLDTTLSATETTFEY
casein hydrolyzing activity (PER assay) (casein): casein hydrolyzing activity which was not found in the mock culture supernatant was detected in the culture supernatant of COS-7 cells transfected with pTB1921

Source: patent US20030099631A1
